In this assay the target is T1, histone H4 (Xenopus laevis) (Xenopus laevis, UniProt P62799 1-103).
T1 construct: histone H4, Xenopus laevis, recombinant; In the cryo-EM structure H4 stood within the nucleosome m2; source: bought: Histone Source Protein Expression and Purification Facility, Colorado State University (purified recombinant)
As to the kind of experiment: cryo-EM structure; modified nucleosomes at 1 µM, ALC1 at 6 µM, ADP-BeF3 at 1 mM, incubated 60 minutes on ice before vitrification. The following applies: both partners purified.

B1: ALC1 (Amplified in Liver Cancer 1), wild-type construct (16-879) (enzyme)
chain: FLLRLHTEGRAEAARVQEQDLRQWGLTGIHLRSYQLEGVNWLAQRFHCQNGCILGDEMGLGKTCQTIALFIYLAGRLNDEGPFLILCPLSVLSNWKEEMQRFAPGLSCVTYAGDKEERACLQQDLKQESRFHVLLTTYEICLKDASFLKSFPWSVLVVDEAHRLKNQSSLLHKTLSEFSVVFSLLLTGTPIQNSLQELYSLLSFVEPDLFSKEEVGDFIQRYQDIEKESESASELHKLLQPFLLRRVKAEVATELPKKTEVVIYHGMSALQKKYYKAILMKDLDAFENETAKKVKLQNILSQLRKCVDHPYLFDGVEPEPFEVGDHLTEASGKLHLLDKLLAFLYSGGHRVLLFSQMTQMLDILQDYMDYRGYSYERVDGSVRGEERHLAIKNFGQQPIFVFLLSTRAGGVGMNLTAADTVIFVDSDFNPQNDLQAAARAHRIGQNKSVKVIRLIGRDTVEEIVYRKAASKLQLTNMIIEGGHFTLGAQKPAADADLQLSEILKFGLDKLLASEGSTMDEIDLESILGETKDGQWVSDALPAAEGGSRDQEEGKNHMYLFEGKDYSKEPSKEDRKSFEQLVNLQKTLLEKASQEGRSLRNKGSVLIPGLVEGSTKRKRVLSPEELEDRQKKRQEAAAKRRRLIEEKKRQKEEAEHKKKMAWWESNNYQSFCLPSEESEPEDLENGEESSAELDYQDPDATSLKYVSGDVTHPQAGAEDALIVHCVDDSGHWGRGGLFTALEKRSAEPRKIYELAGKMKDLSLGGVLLFPVDDKESRNKGQDLLALIVAQHRDRSNVLSGIKMAALEEGLKKIFLAAKKKKASVHLPRIGHATKGFNWYGTERLIRKHLAARGIPTYIYYFPRSK
notes: human ALC1/CHD1L, residues 16-879; The cryo-EM methods call the protein ALC1^fl, while the only construct described is 16-879; also called CHD1L; ALC1/CHD1L; source: E. coli Rosetta 2 (DE3), purified (HisTrap, Q/SP ion exchange, Superdex 200)
Take B1: the binding result is listed as “binds”.

The values above are taken from article PMC10837151, “Asymmetric nucleosome PARylation at DNA breaks mediates directional nucleosome sliding by ALC1” (Nature Communications, 2024).
